Source: PMC9080080 (Cell Reports, 2022)

Target: SARS-CoV S2P protein (SARS-CoV, strain  (reference …, UniProt P59594, stabilised))
Assay: SPR

B1: XMA09 (antibody, V domains shown)
VH: QVQLVQSGAEVKKPGSSVKVSCKASGGTFSSFAISWVRQAPGQGLEWMGGIIPIYGTANYAQKFQGRVTITADESTSTAYMDLSSLRSEDTAVYYCARDGSSTYYPHNWFDPWGQGTLVTVSS
VL: QSVLTQPPSVSGAPGQRVTISCTGSSSNIGSGYDVHWYQQLPGTAPKLLIYGNSNRPSGVPDRFSGSKSGTSASLAITGLQAEDEADYYCQSYDSSLSGVFGTGTKVTVL
  binding result: binds
